Experimental data: the RNAGym collection of RNA variant scans (doi:10.7554/elife.90254)

B1: OR4K15 (parent)
chain: GUUAACGGUCAUAGGCCAUGGAAACUAGGAGCACCAUUUCGCUGCCAGUGAAGAAAUGAACAAAGAAAAUCUGGGCCAGGCAGGCAUCAAAAGAAAUAGUCUUGCGCUCAACCAGAAAGUCUGUAAUCAUUUUAAGGGUA

Variants of: B1
Test: self-cleavage, relative activity (ratio to wild type); higher = more cleavage; in vitro, sequencing; the parent is a self-cleaving ribozyme
For A23G U43C, the self-cleavage was 1.38.
For A22U U132A, the self-cleavage was 1.7.
Work on A23G A69G yielded a self-cleavage of 0.91.
Variant A24G A60U has a self-cleavage of 1.08.
With A23U G136A the self-cleavage was 0.85.
A23G A129C showed a self-cleavage of 0.82.
In the case of A23G A129G, the self-cleavage is reported as 0.35.
In the case of A24G A82G, the self-cleavage is reported as 0.67.
A24G A82C gave a self-cleavage of 0.25.
Variant A22U A63U has a self-cleavage of 2.2.
Variant A22U A63G has a self-cleavage of 1.45.
Work on A23G A60G yielded a self-cleavage of 0.97.
Work on A24G U39C yielded a self-cleavage of 1.35.
Variant A23U G29A has a self-cleavage of 2.77.
In the case of A23U U131C, the self-cleavage is reported as 1.02.
With A22U G123U the self-cleavage was 1.96.
With A24G A33U the self-cleavage was 1.73.
Variant A24G A33G has a self-cleavage of 0.85.
In the case of A24G A126G, the self-cleavage is reported as 0.83.
In the case of A23G U131C, the self-cleavage is reported as 0.45.
A23G A126G showed a self-cleavage of 0.76.
For A24C U120C, the self-cleavage was 1.13.
Variant A24G A27G has a self-cleavage of 0.97.
In the case of A24G A27C, the self-cleavage is reported as 0.55.
A23U U100C showed a self-cleavage of 2.74.
Variant A24C U37C has a self-cleavage of 1.29.
For A24C A33G, the self-cleavage was 1.14.
A24G A67U gave a self-cleavage of 1.32.
A23U A78G gave a self-cleavage of 0.31.
A24G A86C showed a self-cleavage of 0.43.
Work on A24G A86U yielded a self-cleavage of 1.44.
Work on A22U A67G yielded a self-cleavage of 1.87.
A22U U100C showed a self-cleavage of 2.44.
In the case of A24G C35U, the self-cleavage is reported as 1.12.
For A24G U131C, the self-cleavage was 1.17.
Variant A24G U131G has a self-cleavage of 1.61.
In the case of A23G C46U, the self-cleavage is reported as 1.59.
With A24U A66G the self-cleavage was 1.66.
With A24G G83A the self-cleavage was 0.98.
In the case of A23C G83A, the self-cleavage is reported as 2.28.
Work on A24C A27G yielded a self-cleavage of 1.25.
A22U A36G gave a self-cleavage of 1.48.
In the case of A22U A36U, the self-cleavage is reported as 1.53.
For A24G A56C, the self-cleavage was 1.02.
A24G A56U gave a self-cleavage of 0.97.
A24G A56G showed a self-cleavage of 1.25.
With A24G A96G the self-cleavage was 1.2.
In the case of A24U A27U, the self-cleavage is reported as 1.14.
A24G G73A gave a self-cleavage of 0.29.
For A23U A66G, the self-cleavage was 1.16.
Work on A24C U70G yielded a self-cleavage of 0.73.
Variant A22U U43C has a self-cleavage of 1.81.
A22U U43A gave a self-cleavage of 2.1.
A23G U124C showed a self-cleavage of 0.69.
For A23G U124A, the self-cleavage was 0.25.
A24G A51C showed a self-cleavage of 0.87.
For A22G U139A, the self-cleavage was 1.14.
A22G U139C gave a self-cleavage of 1.24.
A23U A67G gave a self-cleavage of 1.73.
A23U U39C gave a self-cleavage of 1.27.
Variant A23G U87C has a self-cleavage of 0.61.
A23G U87A showed a self-cleavage of 0.94.
In the case of A24C A96G, the self-cleavage is reported as 1.72.
Variant A23C U130C has a self-cleavage of 0.85.
A23G G74A gave a self-cleavage of 0.14.
With A23G G136A the self-cleavage was 1.39.
With A23C A62G the self-cleavage was 0.57.
Variant A24G U97C has a self-cleavage of 0.1.
A24G U133C showed a self-cleavage of 1.14.
Variant A24G U133A has a self-cleavage of 1.18.
Work on A23U U72A yielded a self-cleavage of 0.41.
In the case of A23U A140G, the self-cleavage is reported as 1.38.
With A23U A140C the self-cleavage was 1.37.
A22U A30G gave a self-cleavage of 1.13.
For A23C A30G, the self-cleavage was 0.62.
A24C U87C showed a self-cleavage of 1.44.
Work on A24G C46U yielded a self-cleavage of 0.73.
A24C A56G showed a self-cleavage of 2.01.
For A22U A24G, the self-cleavage was 1.01.
Variant A24G A92G has a self-cleavage of 1.19.
With A22U U57C the self-cleavage was 0.84.
A23G A62U showed a self-cleavage of 1.09.
Variant A23G A62G has a self-cleavage of 0.87.
A23G A114U showed a self-cleavage of 0.07.
Work on A23G A114G yielded a self-cleavage of 0.54.
In the case of A22U C25U, the self-cleavage is reported as 0.77.
A24C A117G gave a self-cleavage of 0.83.
In the case of A24U A33G, the self-cleavage is reported as 1.14.
A24G A64G gave a self-cleavage of 1.01.
For A24C A59U, the self-cleavage was 1.57.
A23G A59G showed a self-cleavage of 1.11.
Work on A22U A69C yielded a self-cleavage of 0.47.
Work on A22U A69U yielded a self-cleavage of 2.67.
A22U A129C gave a self-cleavage of 1.58.
Variant A24C U122C has a self-cleavage of 1.49.
A23U U102A showed a self-cleavage of 1.09.
Variant A23G G80U has a self-cleavage of 0.23.
Variant A23C A27G has a self-cleavage of 0.28.
A23G A82G gave a self-cleavage of 0.57.
A24G U70A gave a self-cleavage of 1.17.
With A23U A27G the self-cleavage was 1.16.
A24C U132C showed a self-cleavage of 1.46.
A24C A95U gave a self-cleavage of 2.22.
For A23G A95U, the self-cleavage was 2.26.
For A24G U72G, the self-cleavage was 0.26.
A24G U72A gave a self-cleavage of 0.28.
In the case of A24G G104U, the self-cleavage is reported as 0.01.
For A23U G41C, the self-cleavage was 2.09.
In the case of A24G A125C, the self-cleavage is reported as 0.4.
In the case of A24G A68U, the self-cleavage is reported as 0.87.
Work on A22U A96G yielded a self-cleavage of 1.57.
A22U A96U showed a self-cleavage of 1.54.
A24G G84C showed a self-cleavage of 0.53.
With A24C A118C the self-cleavage was 0.84.
For A24G U57G, the self-cleavage was 0.4.
For A23G A90G, the self-cleavage was 0.8.
In the case of A23U A47G, the self-cleavage is reported as 0.67.
With A23U A47U the self-cleavage was 1.04.
A24G C105A gave a self-cleavage of 0.02.
A22U A66G showed a self-cleavage of 1.5.
A23G U97A showed a self-cleavage of 1.48.
A23G U97C showed a self-cleavage of 0.8.
Variant A22U A68G has a self-cleavage of 0.93.
A23U U103C showed a self-cleavage of 0.03.
Work on A22U U97C yielded a self-cleavage of 0.69.
Work on A23G C113U yielded a self-cleavage of 0.05.
In the case of A23G A94C, the self-cleavage is reported as 1.14.
With A23G A94G the self-cleavage was 1.42.
A23G U127G gave a self-cleavage of 1.
Work on A23G U127C yielded a self-cleavage of 0.79.
A24G A129G showed a self-cleavage of 1.15.
A22U A111G showed a self-cleavage of 0.02.
Variant A24C A51U has a self-cleavage of 1.33.
Work on A24G A98C yielded a self-cleavage of 1.76.
For A24G A59U, the self-cleavage was 0.51.
In the case of A24G A62U, the self-cleavage is reported as 1.12.
Work on A24G A62G yielded a self-cleavage of 1.27.
For A22U U72A, the self-cleavage was 0.21.
In the case of A22U U72C, the self-cleavage is reported as 0.04.
Work on A23G U49C yielded a self-cleavage of 0.9.
A23G A110U showed a self-cleavage of 1.25.
Variant A23G A110G has a self-cleavage of 0.11.
A23G A96U showed a self-cleavage of 1.17.
A24C A69G showed a self-cleavage of 1.24.
Work on A23G U122C yielded a self-cleavage of 0.84.
Work on A23G G50U yielded a self-cleavage of 0.79.
With A23G G50A the self-cleavage was 1.9.
For A23G A117G, the self-cleavage was 1.2.
Variant A24G A91G has a self-cleavage of 0.65.
A24G A116U showed a self-cleavage of 0.46.
Work on A23G G75A yielded a self-cleavage of 0.19.
Variant A24G A135U has a self-cleavage of 1.33.
Work on A24G A135G yielded a self-cleavage of 1.67.
A23U U130C gave a self-cleavage of 0.7.
For A23G A36G, the self-cleavage was 1.43.
In the case of A23G A36C, the self-cleavage is reported as 1.41.
Work on A24G U124A yielded a self-cleavage of 0.74.
With A24G U124C the self-cleavage was 0.73.
A23G U120A showed a self-cleavage of 0.47.
In the case of A23G U120G, the self-cleavage is reported as 1.48.
In the case of A23G U120C, the self-cleavage is reported as 0.96.
With A24G U26A the self-cleavage was 0.98.
Variant A23U A60G has a self-cleavage of 1.24.
A24C U133A gave a self-cleavage of 1.76.
Variant A24G A140G has a self-cleavage of 1.4.
Variant A24G A140U has a self-cleavage of 0.89.
Work on A24G A54G yielded a self-cleavage of 1.12.
